Assay results from patent US20030148956A1 (PROCTER AND GAMBLE, published 2003).
Ends that are not written are not given here.

Assays:
[1] = target: T1, corticotropin releasing factor 2 receptor; assay: cell-based or functional assay
T1 sequence (Q13324 whole entry, species assumed, looked up): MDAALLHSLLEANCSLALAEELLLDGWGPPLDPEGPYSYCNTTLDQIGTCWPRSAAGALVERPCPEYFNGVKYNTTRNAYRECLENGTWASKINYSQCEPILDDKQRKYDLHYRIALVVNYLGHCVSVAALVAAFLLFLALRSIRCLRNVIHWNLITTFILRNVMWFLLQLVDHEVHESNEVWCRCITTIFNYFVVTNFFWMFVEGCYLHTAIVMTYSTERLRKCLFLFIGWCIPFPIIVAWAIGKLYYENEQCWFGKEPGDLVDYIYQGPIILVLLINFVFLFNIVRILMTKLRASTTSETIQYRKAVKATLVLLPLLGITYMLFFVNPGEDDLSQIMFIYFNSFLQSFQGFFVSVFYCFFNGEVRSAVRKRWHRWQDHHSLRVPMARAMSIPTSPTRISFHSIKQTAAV

[2] = target: corticotropin releasing factor 1 receptor; assay: cell-based or functional assay

Row | CRF2R EC50 [1] | CRF2R Emax % [1] | CRF1R EC50 [2] | CRF1R Emax % [2] | Binder
1 | 6.62 nM | 97% | 1000 nM | 22% | IVLSLDVPIHLLQILLEQARARAAREQATTNARILARV-NH2 [SEQ ID NO 371]
2 | 100 nM | 18% | 1000 nM | 4% | IVLSLDVPIGLLQILLEQARHAHAHAHAHAQAHILAHV-NH2 [SEQ ID NO 369]
3 | 100 nM | 46% | 1000 nM | 9% | IVLSLDVPIGLLQILLEKAAAEAEAAAKAAQEQILAHV-NH2 [SEQ ID NO 366]
4 | 5.56 nM | 100% | 99 nM | 100% | ZGPPISIDLPFQLLRILIEIEKQEKEKQQAANNALLLAT (C-terminal amide) [SEQ ID NO 358]
5 | 11.6 nM | 98.1% | 1000 nM | 48% | ZGPPISIDLPFQLLRKVIEIEKQEKEKQQAANNALLLDTI (C-terminal amide) [SEQ ID NO 350]
6 | 23.4 nM | 94% | 1000 nM | 21% | ZGPPISIDLPFQLLRKAIEIEKQEKEKQQAANNALLLDTI (C-terminal amide) [SEQ ID NO 365]
7 | 4.39 nM | 100% | 386 nM | 100% | ZGPPISIDLPFQLLRKIIEIEKQEKEKQQAANNALLLATI (C-terminal amide) [SEQ ID NO 362]
8 | 8.26 nM | 83.7% | 780 nM | 82.6% | ZGPPISIDLPFQLLRKVIEIEKQEKEKQQAANNALLLATI (C-terminal amide) [SEQ ID NO 352]
9 | 15.8 nM | 91% | 1000 nM | 11% | ZGPPISIDVPYQLLRKVIEIEKQEKEKQQAANNARLLDTI (C-terminal amide) [SEQ ID NO 374]
10 | 6.12 nM | 93% | 157 nM | 100% | ZGPPISIDLPFQLLRLLIEIEKQEKEKQQAANNALLLATI (C-terminal amide) [SEQ ID NO 360]
11 | 12.9 nM | 97.4% | 1000 nM | 85.7% | ZGPPISIDLPFQLLRKVIEIEKQEKEKQQATTNARLLDRV (C-terminal amide) [SEQ ID NO 351]
12 | 52.5 nM | 100% | 1000 nM | 8% | ZGPPISIDVPYHLLRKVIEIEKQEKEKQQAANNARLLDTI (C-terminal amide) [SEQ ID NO 376]
13 | 6.37 nM | 99% | 149 nM | 100% | ZGPPISIDLPFQLLRVLIEIEKQEKEKQQAANNALLLATI (C-terminal amide) [SEQ ID NO 361]
14 | 6.44 nM | 100% | 331 nM | 100% | ZGPPISIDLPFQLLRKLIEIEKQEKEKQQAANNALLLATI (C-terminal amide) [SEQ ID NO 357]
15 | 14.2 nM | 100% | 1000 nM | 13% | ZGPPISIDVPYWLLRKVIEIEKQEKEKQQAANNARLLDTI (C-terminal amide) [SEQ ID NO 372]
16 | 23.1 nM | 100% | 230 nM | 100% | ZGPPISIDLPFQLLREVIEIEKQEKEKQQAANNALLLATI (C-terminal amide) [SEQ ID NO 359]

Row | CRF2R EC50 [1] | CRF2R Emax % [1] | CRF1R EC50 [2] | CRF1R Emax % [2] | Binder
17 | 6.03 nM | 95% | 18 nM | 100% | ZGPPISIDLSLELLRKMIEIEKQEKEKQQAANNRLLLDTI (C-terminal amide) [SEQ ID NO 355]
18 | 19 nM | 100% | 1000 nM | 16% | ZGPPISIDVPLQLLRKVIEIEKQEKEKQQAANNARLLDTI (C-terminal amide) [SEQ ID NO 380]
19 | 13.2 nM | 100% | 1000 nM | 27% | ZGPPISIDLPFQLLRKAIEIEKQEKEKQQAANNALLLATI (C-terminal amide) [SEQ ID NO 364]
20 | 11.5 nM | 100% | 1000 nM | 22% | ZGPPISIDVPYQLLRKVIEIEKQEKEKQQAANNARLLARI (C-terminal amide) [SEQ ID NO 375]
21 | 4.75 nM | 89.9% | 230 nM | 92.2% | ZGPPISIDLPLYLLRKMIEIEKQEKEKQQATTNARILARV (C-terminal amide) [SEQ ID NO 353]
22 | 25.1 nM | 100% | 1000 nM | 20% | ZGPPISIDLPFQLLRKAIEIEKQEKEKQQATTNARLLDRV (C-terminal amide) [SEQ ID NO 363]
23 | 6.48 nM | 100% | 1000 nM | 13.4% | Ac-IVLSLDVPIGLLQILLEQARARAAREQATTNARILARV-NH2 [SEQ ID NO 354]
24 | 100 nM | 18% | 1000 nM | 6% | IVLSLDVPIGLLQILLEQARHAAAHAAAHAQAHILAHV-NH2 [SEQ ID NO 367]
25 | 83 nM |  | 1000 nM |  | IVLSLDVPIGLLQILLEQARARAAREQATTNARILARVM-NH2 [SEQ ID NO 356]
26 | 11.5 nM | 100% | 1000 nM | 9% | ZGPPISIDVPYWLLRKVIEIEKQEKEKQQAANNARLLARI (C-terminal amide) [SEQ ID NO 373]
27 | 70.5 nM | 94% | 1000 nM | 8% | ZGPPISIDVPIYLLRKVIEIEKQEKEKQQAANNARLLARI (C-terminal amide) [SEQ ID NO 379]
28 | 19.2 nM | 83% | 1000 nM | 25% | ZGPPISIDVPYHLLRKVIEIEKQEKEKQQAANNARLLARI (C-terminal amide) [SEQ ID NO 377]
29 | 14.9 nM | 100% | 1000 nM | 36% | ZGPPISIDVPYYLLRKVIEIEKQEKEKQQAANNARLLARI (C-terminal amide) [SEQ ID NO 378]
30 | 51 nM | 75% | 1000 nM | 33% | IVLSLDVSIGLLQILLEQARARAAREQATTNARILARV-NH2 [SEQ ID NO 370]
31 | 50.4 nM |  | 1000 nM |  | IVLSLDVPIGLLQILLEQARARAAREQATTNARILARVM-NH2 [SEQ ID NO 368]
